How the values were obtained:
[1] = molecular target: T1, αvβ5 integrin on A375Ppuro cells (UniProt P06756 31-1048; P18084 24-799); experiment: flow cytometry on A375Ppuro cells, which express αvβ5
T1 construct: whole, on cells

[2] = molecular target: T2, carcinoembryonic antigen on LS-174T cells (human, UniProt P06731 35-702); experiment: flow cytometry on LS174T cells
T2 construct: whole, on cells; also called CEA on LS174T cells; CEA-expressing LS-174T cells
T2 sequence: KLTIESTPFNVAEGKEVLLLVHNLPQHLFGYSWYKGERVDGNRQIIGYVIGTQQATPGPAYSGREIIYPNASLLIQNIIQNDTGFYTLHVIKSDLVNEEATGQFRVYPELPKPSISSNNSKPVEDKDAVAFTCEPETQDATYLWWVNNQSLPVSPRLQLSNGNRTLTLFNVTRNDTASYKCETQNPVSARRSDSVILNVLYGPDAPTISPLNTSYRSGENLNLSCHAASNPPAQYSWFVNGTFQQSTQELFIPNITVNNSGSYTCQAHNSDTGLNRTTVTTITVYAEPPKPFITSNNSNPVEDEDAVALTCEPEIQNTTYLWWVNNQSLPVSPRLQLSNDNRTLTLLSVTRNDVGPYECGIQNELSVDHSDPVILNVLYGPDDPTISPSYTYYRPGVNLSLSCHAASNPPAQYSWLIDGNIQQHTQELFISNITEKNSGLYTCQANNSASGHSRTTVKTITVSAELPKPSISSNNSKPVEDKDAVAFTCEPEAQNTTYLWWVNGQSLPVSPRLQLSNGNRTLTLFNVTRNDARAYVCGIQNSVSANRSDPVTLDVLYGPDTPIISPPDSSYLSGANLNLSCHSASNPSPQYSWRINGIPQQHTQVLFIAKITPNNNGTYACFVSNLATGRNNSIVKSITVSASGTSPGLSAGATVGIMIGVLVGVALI

[3] = molecular target: T3, carcinoembryonic antigen, immobilized (UniProt P06731 35-685); experiment: ELISA on immobilized CEA, rabbit anti-MFE detection, three concentrations
T3 construct: also called CEA; immobilized CEA
T3 sequence: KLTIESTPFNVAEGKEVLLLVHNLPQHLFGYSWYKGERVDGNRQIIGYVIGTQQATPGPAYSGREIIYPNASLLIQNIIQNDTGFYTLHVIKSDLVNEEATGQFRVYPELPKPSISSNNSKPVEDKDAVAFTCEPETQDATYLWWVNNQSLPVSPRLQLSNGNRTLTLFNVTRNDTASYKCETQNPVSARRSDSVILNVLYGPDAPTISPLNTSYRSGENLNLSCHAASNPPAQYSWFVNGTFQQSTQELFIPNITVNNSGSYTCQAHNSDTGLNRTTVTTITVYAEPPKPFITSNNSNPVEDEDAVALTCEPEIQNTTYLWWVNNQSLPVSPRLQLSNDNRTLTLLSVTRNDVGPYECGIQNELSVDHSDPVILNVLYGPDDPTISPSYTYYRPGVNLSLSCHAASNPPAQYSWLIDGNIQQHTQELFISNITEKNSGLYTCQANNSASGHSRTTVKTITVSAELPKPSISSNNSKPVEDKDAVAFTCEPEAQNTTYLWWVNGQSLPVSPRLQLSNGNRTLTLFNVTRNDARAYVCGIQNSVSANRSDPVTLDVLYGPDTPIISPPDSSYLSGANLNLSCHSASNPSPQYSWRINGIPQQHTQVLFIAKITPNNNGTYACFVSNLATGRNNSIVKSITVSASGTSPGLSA

[4] = molecular target: T4, α5β1 integrin on A375Ppuro cells (UniProt P08648 42-1049; P05556 21-798); experiment: flow cytometry on A375Ppuro cells, which express α5β1
T4 construct: whole, on cells

[5] = molecular target: T5, αvβ8 integrin on A375Ppuro cells (UniProt P06756 31-1048; P26012 43-769); experiment: flow cytometry on A375Ppuro cells, which express αvβ8
T5 construct: whole, on cells

[6] = molecular target: T6, αvβ3 integrin, immobilized (UniProt P06756 31-1048; P05106 27-788); experiment: ELISA on immobilized αvβ3, rabbit anti-MFE detection
T6 construct: also called immobilized αvβ3

[7] = molecular target: T7, αvβ3 integrin on A375Ppuro cells (UniProt P06756 31-1048; P05106 27-788); experiment: flow cytometry on A375Ppuro cells, which express αvβ3
T7 construct: whole, on cells

[8] = molecular target: T8, αvβ6 integrin, immobilized (UniProt P06756 31-992; P18564 22-709); experiment: ELISA on immobilized αvβ6, rabbit anti-MFE detection
T8 construct: also called immobilized αvβ6; rsαvβ6

T5 sequence (P06756 31-1048, chain 1 of 2): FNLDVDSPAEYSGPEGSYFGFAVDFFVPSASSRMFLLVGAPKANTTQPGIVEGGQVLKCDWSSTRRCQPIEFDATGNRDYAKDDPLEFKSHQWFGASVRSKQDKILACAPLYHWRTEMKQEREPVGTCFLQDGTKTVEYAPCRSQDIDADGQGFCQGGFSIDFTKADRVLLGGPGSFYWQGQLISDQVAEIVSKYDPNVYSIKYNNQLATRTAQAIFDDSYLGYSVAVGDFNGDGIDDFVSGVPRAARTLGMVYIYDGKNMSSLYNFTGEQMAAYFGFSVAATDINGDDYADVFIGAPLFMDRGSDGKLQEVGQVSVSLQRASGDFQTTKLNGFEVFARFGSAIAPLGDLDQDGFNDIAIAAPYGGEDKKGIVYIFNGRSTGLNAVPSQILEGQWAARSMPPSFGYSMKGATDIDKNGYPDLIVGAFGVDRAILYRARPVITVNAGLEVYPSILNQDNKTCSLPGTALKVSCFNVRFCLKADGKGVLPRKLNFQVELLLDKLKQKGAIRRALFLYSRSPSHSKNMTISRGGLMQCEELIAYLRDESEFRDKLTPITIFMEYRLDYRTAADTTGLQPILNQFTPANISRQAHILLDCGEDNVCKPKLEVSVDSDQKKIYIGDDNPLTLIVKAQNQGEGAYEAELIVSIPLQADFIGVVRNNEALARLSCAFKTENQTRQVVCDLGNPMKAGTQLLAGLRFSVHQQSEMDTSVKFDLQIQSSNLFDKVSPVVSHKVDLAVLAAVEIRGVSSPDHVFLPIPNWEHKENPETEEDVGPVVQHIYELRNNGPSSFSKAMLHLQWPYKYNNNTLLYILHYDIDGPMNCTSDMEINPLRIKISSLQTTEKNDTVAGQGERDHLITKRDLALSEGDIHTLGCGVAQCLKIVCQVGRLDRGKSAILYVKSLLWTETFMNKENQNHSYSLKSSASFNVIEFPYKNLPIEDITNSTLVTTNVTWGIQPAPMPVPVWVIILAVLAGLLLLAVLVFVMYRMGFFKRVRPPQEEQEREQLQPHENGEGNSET
T5 sequence (P26012 43-769, chain 2 of 2): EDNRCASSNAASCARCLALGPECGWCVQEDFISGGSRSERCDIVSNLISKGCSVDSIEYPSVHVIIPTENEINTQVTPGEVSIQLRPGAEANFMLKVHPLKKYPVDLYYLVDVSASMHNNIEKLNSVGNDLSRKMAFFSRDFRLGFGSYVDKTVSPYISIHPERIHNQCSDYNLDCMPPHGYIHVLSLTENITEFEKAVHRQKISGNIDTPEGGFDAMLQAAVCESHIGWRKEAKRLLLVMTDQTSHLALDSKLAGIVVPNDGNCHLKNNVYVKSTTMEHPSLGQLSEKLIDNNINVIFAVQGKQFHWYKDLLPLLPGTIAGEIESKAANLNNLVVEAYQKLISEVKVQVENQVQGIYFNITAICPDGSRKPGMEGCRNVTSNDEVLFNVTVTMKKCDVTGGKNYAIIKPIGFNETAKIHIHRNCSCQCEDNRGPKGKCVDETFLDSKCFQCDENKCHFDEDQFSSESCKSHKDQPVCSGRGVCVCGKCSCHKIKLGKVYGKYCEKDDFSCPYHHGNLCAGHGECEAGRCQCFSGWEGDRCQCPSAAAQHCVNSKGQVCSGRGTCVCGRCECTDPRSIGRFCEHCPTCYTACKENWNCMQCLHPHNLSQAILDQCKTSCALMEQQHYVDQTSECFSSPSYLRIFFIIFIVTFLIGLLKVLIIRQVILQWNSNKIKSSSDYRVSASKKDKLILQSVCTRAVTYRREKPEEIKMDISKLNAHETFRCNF
T1 sequence (P06756 31-1048, chain 1 of 2): as the sequence (P06756 31-1048, chain 1 of 2) above
T1 sequence (P18084 24-799, chain 2 of 2): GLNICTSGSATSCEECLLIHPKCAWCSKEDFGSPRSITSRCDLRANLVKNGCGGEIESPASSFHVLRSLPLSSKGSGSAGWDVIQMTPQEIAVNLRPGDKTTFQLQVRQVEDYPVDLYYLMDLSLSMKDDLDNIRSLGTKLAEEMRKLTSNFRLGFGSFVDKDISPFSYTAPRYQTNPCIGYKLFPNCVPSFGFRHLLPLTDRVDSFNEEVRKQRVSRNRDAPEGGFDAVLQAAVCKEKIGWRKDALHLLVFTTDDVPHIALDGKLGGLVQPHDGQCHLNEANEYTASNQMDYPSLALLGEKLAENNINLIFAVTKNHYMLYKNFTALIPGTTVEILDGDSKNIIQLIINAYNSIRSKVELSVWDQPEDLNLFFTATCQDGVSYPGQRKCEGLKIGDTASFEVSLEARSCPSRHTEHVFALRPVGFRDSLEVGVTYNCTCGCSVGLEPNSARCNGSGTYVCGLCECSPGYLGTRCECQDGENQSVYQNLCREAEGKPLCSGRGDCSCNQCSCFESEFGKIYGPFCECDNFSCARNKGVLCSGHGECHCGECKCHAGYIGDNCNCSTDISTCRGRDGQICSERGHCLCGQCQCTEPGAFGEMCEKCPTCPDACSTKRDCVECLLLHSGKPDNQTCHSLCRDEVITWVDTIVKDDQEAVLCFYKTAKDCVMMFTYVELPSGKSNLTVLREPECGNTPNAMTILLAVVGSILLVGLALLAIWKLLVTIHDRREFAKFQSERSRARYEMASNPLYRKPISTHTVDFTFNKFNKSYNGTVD
T7 sequence (P06756 31-1048, chain 1 of 2): as the sequence (P06756 31-1048, chain 1 of 2) above
T7 sequence (P05106 27-788, chain 2 of 2): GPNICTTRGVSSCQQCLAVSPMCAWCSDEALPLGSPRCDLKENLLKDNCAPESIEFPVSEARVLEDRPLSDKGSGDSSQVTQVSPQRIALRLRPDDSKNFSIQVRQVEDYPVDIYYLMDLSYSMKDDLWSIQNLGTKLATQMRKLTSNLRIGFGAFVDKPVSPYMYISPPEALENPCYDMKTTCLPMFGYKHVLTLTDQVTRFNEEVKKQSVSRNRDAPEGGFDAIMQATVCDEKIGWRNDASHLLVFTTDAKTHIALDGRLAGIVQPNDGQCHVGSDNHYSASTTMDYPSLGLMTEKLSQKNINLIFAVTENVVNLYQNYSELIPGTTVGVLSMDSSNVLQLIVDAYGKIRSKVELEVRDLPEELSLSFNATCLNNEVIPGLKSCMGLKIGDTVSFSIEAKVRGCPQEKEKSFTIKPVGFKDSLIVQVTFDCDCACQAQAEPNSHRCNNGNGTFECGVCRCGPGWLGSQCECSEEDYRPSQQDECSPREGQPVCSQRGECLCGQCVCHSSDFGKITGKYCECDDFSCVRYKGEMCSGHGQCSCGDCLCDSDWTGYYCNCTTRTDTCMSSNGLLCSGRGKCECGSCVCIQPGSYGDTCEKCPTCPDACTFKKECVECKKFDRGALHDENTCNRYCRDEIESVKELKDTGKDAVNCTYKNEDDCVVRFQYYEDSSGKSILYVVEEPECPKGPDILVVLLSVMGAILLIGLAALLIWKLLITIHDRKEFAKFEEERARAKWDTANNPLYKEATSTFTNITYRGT
T6 sequence (P06756 31-1048, chain 1 of 2): as the sequence (P06756 31-1048, chain 1 of 2) above
T6 sequence (P05106 27-788, chain 2 of 2): as the sequence (P05106 27-788, chain 2 of 2) above

Row | Binder | binding result [1] | binding result [2] | binding result [3] | binding result [4] | binding result [5] | binding result [6] | binding result [7] | binding result [8]
1 | NFEVP1 (scFv) scFv: QVKLQQSGAELVRSGTSVKLSCTASGFNIKDSYMHWLRQGPEQGLEWIGWIDPENGDTEYAPKFQGKATFTTDTSSNTAYLQLSSLTSEDTAVYYCNEGTPTAVPNLRGDLQVLAQKVAGPYPFDYWGQGTTVTVSSGGGGSGGGGSGGGGSENVLTQSPAIMSASPGEKVTITCSASSSVSYMHWFQQKPGTSPKLWIYSTSNLASGVPARFSGSGSGTSYSLTISRMEAEDAATYYCQQRSSYPLTFGAGTKLELKRAAAHHHHHH | no binding | no binding (tested: 50 µg/ml) | no binding | no binding | no binding | no binding (tested: 20 µg/ml) | no binding | 
2 | MFE-23 scFv (scFv, also called parent MFE) scFv: QVKLQQSGAELVRSGTSVKLSCTASGFNIKDSYMHWLRQGPEQGLEWIGWIDPENGDTEYAPKFQGKATFTTDTSSNTAYLQLSSLTSEDTAVYYCNEGTPTGPYYFDYWGQGTTVTVSSGGGGSGGGGSGGGGSENVLTQSPAIMSASPGEKVTITCSASSSVSYMHWFQQKPGTSPKLWIYSTSNLASGVPARFSGSGSGTSYSLTISRMEAEDAATYYCQQRSSYPLTFGAGTKLELKRAAAHHHHHH |  |  |  |  |  |  |  | no binding (tested: 10 µg/ml)

Reference: US20150291695A1 (CANCER RESEARCH TECHNOLOGY, published 2015)
